In patent publication US20230383265A1, “D-beta-HYDROXYBUTYRATE DEHYDROGENASES (BHBDhs) AND THEIR USE FOR KETONE MONITORING” (The University of North Carolina at Chapel Hill, priority 2022, published 2023) one finds Km and Vmax data, which are given here for two molecules.

In series [1] the target is T1, Thermus thermophilus BHBDh (TtBHBDh), wild type, SEQ ID NO: 3 (Thermus thermophilus, UniProt Q5SKF0).
T1 sequence (Q5SKF0 1-251): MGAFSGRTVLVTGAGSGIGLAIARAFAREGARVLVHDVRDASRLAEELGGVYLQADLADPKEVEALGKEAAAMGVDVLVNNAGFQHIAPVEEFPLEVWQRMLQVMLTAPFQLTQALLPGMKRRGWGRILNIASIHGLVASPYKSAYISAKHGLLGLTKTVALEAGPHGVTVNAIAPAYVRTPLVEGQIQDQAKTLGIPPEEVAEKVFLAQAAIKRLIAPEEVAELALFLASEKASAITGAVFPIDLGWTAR
Briefly: BHB concentration-dependent BHBDh activity of TtBHBDh (NADH detection, absorbance at 340 nm). It counts as biochemical. Particulars: 1 mM NAD+, 10 mM HEPES pH 7.8, 0 mM MgCl2, 0-50 mM BHB, room temperature; read-out: Km toward BHB. How it is done: The activity was measured using NADH detection via absorbance at 340 nm, at room temperature. The measurement was done in a solution with 1 mM NAD^+, 10 mM HEPES at pH 7.8, and 0 mM MgCl2·6 H2O, from 0-50 mM BHB.

Substrate in series [2]: C[C@@H](O)CC(=O)O
Briefly: NAD dependent BHB dehydrogenase activity of AfBHBDh. The class given is biochemical, Alcaligenes faecalis.

A word on the Km: it is the concentration of substrate that gives half-maximal velocity. Regarding `C[C@@H](O)CC(=O)O` [BHB, R-3-hydroxybutyrate], in series [1], the Km came out at 359 µM.

B1: (Alcaligenes faecalis) (protein)
chain: MLKGKKAVVTGSTSGIGLAMATELAKAGADVVINGFGQPEDIERERSTLESKFGVKAYYLNADLSDAQATRDFIAKAAEALGGLDILVNNAGIQHTAPIEEFPVDKWNAIIALNLSAVFHGTAAALPIMQKQGWGRIINIASAHGLVASVNKSAYVAAKHGVVGLTKVTALENAGKGITCNAICPGWVRTPLVEKQIEAISQQKGIDIEAAARELLAEKQPSLQFVTPEQLGGAAVFLSSAAADQMTGTTLSLDGGWTAR
A word on the Vmax: it is the rate approached at saturating substrate. For the molecule B1, in series [2], the Michaelis constant (Km) was found to be 1130 µM and the Vmax was determined as 223 µmol/min/mg.
